# Reference: paper PMC11032447 (2024)
# B1: mouse secretagogin [mouse] / helix-b of the Habc domain of mouse syntaxin-4 [mouse] (parent complex)
# chain 1: MDNARRKTPARLDAACFWQIWQRFDKEEKGYIRETELDAFFDHLLAKSGTEDTLMEENVQKVKEQLMTSHNVSKEGRILMKELASMFLSEDENFLLFFRLETPLDNSVEFMQIWRKYDADSSGFISAAELCNFLRDLFLHHKKNISEAELEEYTSTMMKIFDKNKDGRLDLNDLARILALQENFLLQFKMDASSTEERKRDFEKIFAHYDVSKTGALEGPEVDGFVKDMMELVQPSISGVDLDKFREILLRHCDVNKDGKIQKSELALCLGLKINP
# chain 2: TPLPEESMKQGLQNLREEIKQLGREVRAQLKAIEPQKE
# Variants of: B1
# Assay: ITC
row,Kd,Variant
1,16.2 µM,chain 1 MDNARRKTPARLDAACFWQIWQRFDKEEKGYIRETELDAFFDHLLAKSGTEDTLMEENVQKVKEQLMTSHNVSKEGRILMKELASMFLSEDENFLLFFRLETPLDNSVEFMQIWRKYDADSSGFISAAELCNFLRDLFLHHKKNISEAELEEYTSTMMKIFDKNKDGRLDLNDLARILALQENFLLQFKMDASSTEERKRDFEKIFAHYDVSKTGALEGPEVDGFVKDMMELVQPSISGVDLDKFREILLRHCDVNKDGKIQKSELALCAGLKINP [chain 1 L270A]
